Values belong to the binder of their own block, whether it stands above or below them.
Assays:
[1] = target: human CD137 on DO11.10-hCD137 cells (human, UniProt Q07011 24-255); assay: cell-based or functional assay
hCD137-mFc-Avi [2] = target: T1, hCD137-mFc-Avi (human, UniProt Q07011 24-186); assay: SPR, antigens immobilised on CM5 chip, mAb^2 at 1 µM and 1 nM, binding level at end of association
T1 construct: dimer; also called human CD137-mFc-Avi; human CD137-mFc
Procedure: CD137 belongs to the tumour necrosis factor receptor superfamily (TNFRSF) of cytokine receptors (Moran et al., 2013). To analyse the specificity of the anti-CD137 Fab binding site of the five mAb² molecules, binding of the mAb² to human CD137 and five closely-related human TNFRSF members (TNFRSF1A, TNFRSF1B, GITR, NGFR and CD40) was tested using SPR.
(§1) Flow cell 1 was run as a blank immobilisation. The five FS20-22-49AA/FS30 mAb² were diluted to 1 μM and 1 nM in 1×HBS-EP buffer (GE Healthcare, product code BR100188), allowed to flow over the chip for 3 min and then allowed to dissociate for 4 minutes. A 30-second injection of 10 mM glycine pH 1.5 was used for regeneration. […] Binding levels were determined at the end of the association phase and compared.

[3] = target: human CD137 on primary human CD8+ T cells (human, UniProt Q07011 24-255); assay: cell-based or functional assay
GITR-hFc-Avi = target: T2, GITR-hFc-Avi (human, UniProt Q9Y5U5 26-161); assay: SPR, antigen immobilised on CM5 chip
T2 construct: in-house produced; not shown: hFc and Avi part
T2 sequence: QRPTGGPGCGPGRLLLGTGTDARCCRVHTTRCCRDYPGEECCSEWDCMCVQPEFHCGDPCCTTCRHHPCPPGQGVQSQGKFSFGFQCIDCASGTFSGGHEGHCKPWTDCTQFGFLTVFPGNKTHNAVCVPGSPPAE
Procedure: as §1
(§2) Specificity was tested against the same five human TNFRSF members closely-related to CD137 (TNFRSF1A, TNFRSF1B, GITR, NGFR and CD40) plus an additional closely-related TNFRSF member, human DR6 (DR6-Fc; R&D Systems, 144-DR-100), using SPR as described in Example 3.1.

CD40-mFc = target: T3, CD40-mFc (human, UniProt P25942 21-193); assay: SPR, antigen immobilised on CM5 chip
T3 construct: in-house produced; not shown: mFc part
Procedure: as §1, §2

TNFRSF1B-Fc = target: T4, TNFRSF1B-Fc (human, UniProt P20333 23-257); assay: SPR, antigen immobilised on CM5 chip
T4 construct: bought; also called TNFRSF1B (R&D Systems, 726-R2-050); not shown: Fc part of the bought fusion
T4 sequence (looked up): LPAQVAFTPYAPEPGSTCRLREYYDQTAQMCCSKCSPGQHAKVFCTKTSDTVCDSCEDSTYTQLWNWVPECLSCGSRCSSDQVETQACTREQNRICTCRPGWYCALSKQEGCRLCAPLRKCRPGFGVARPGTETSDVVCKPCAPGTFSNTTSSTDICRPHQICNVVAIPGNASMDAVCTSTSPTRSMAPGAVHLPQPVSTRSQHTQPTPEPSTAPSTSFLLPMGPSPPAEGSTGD
Procedure: as §1, §2

NGFR-Fc = target: T5, NGFR-Fc (human, UniProt P08138 29-250); assay: SPR, antigen immobilised on CM5 chip
T5 construct: bought; also called NGFR (R&D Systems, 367-NR-050/CF); not shown: Fc part of the bought fusion
T5 sequence (looked up): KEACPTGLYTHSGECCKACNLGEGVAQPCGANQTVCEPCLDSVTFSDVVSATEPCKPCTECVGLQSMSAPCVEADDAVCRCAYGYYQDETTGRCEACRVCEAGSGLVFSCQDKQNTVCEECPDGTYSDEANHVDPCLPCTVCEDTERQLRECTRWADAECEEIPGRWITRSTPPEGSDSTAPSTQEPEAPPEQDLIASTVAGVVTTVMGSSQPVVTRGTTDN
Procedure: as §1, §2

TNFRSF1A-Fc = target: T6, TNFRSF1A-Fc (human, UniProt P19438 30-211, limits assumed); assay: SPR, antigen immobilised on CM5 chip
T6 construct: bought; also called TNFRSF1A (R&D Systems, 372-RI-050/CF); not shown: Fc part of the bought fusion
T6 sequence (looked up): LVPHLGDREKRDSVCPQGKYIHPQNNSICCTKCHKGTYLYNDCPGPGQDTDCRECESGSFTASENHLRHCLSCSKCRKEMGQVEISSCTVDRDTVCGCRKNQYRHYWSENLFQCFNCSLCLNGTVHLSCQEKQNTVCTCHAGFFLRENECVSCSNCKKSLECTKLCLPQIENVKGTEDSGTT
Procedure: as §1, §2

hCD137-mFc-Avi [4] = target: T1, hCD137-mFc-Avi; assay: cell-based, 100 nM hCD137-mFc-Avi with 200 nM antibody, competitor human CD137L on DO11.10 cells, GMFI normalised to G1/11D4 = 0 and G1/MOR7480.1 = 100; mean of n=2
Procedure: The cells were washed once in PBS and 100 μl/well of secondary antibody (anti-mouse Fc-488 antibody, Jackson Immuno Research, 115-546-008) diluted 1:1000 in PBS containing 2% BSA was then added and incubated for 30 mins at 4° C. in the dark. The cells were washed once with PBS and resuspended in 100 μl of PBS containing DAPI (Biotium, 40043) at 1 μg/ml. The cells were analysed using a Canto II flow cytometer (BD Bioscience). Dead cells were excluded and the fluorescence in the FITC channel (488 nm/530/30) was measured. […] The data was analysed using a one-way ANOVA test and Tukey's multiple comparisons test using GraphPad Prism.

hCD137-mFc-Avi [5] = target: T1, hCD137-mFc-Avi; assay: ELISA, hCD137-mFc-Avi coated, 100 nM antibody, competitor CD137L-His; normalised to G1/11D4 = 0 and G1/MOR7480.1 = 100; mean of n=2
Procedure: The following day, plates were washed with PBST (PBS+0.05% Tween20™) and blocked with PBS+1% BSA (Sigma, A3059-500G) for 1 hour at room temperature with agitation. After blocking, the plates were washed again with PBST. A 100 nM dilution of each test antibody was prepared in PBS+1% BSA and added to the CD137-coated plates and incubated for 1 hour at room temperature with agitation. […] The plates were then washed with PBST and then incubated with anti-his secondary antibody (R&D Systems, MAB050H) at a 1 in 1000 dilution in PBS for 1 hour at room temperature with agitation. The plates were then washed with PBST and incubated with TMB detection reagent (Thermo Fisher Scientific, 002023) until the positive control wells turned blue and then the reaction was stopped with the addition of 2N H_2SO_4. Plates were read at 450 nm using the plate reader with Gen5 Software, BioTek. Absorbance values of 630 nm were subtracted from those of 450 nm (Correction). The subtracted absorbance values were plotted vs the log concentration of antibody and the resulting curves were fitted using the log (inhibitor) vs response equation in GraphPad Prism.

B1: FS20-22-49AA/FS30-5 variant, Methionine (100D) to I (bispecific antibody, V domains shown)
VH: EVQLLESGGGLVQPGGSLRLNCAASGFTFSSYAMSWVRQAPGKGLEWVSAISGSGGSTYYADSVKGRFTISRDNSKNTLYLQMNSLRAEDTAVYYCARSYDKYWGSSIYSGMDYWGQGTLVTVSS
VL: EIVLTQSPGTLSLSPGERATLSCRASQSVSSSYLAWYQQKPGQAPRLLIYGASSRATGIPDRFSGSGSGTDFTLTISRLEPEDFAVYYCQQYYSYYPVTFGQGTKVEIKR
- DO11.10-hCD137 T cell activation assay EC50 (nM), crosslinked [1]: 4.4 nM

B3: FS20-22-49AA/FS30-5 (bispecific antibody, human IgG1, kappa, L234A L235A, V domains shown)
VH: EVQLLESGGGLVQPGGSLRLNCAASGFTFSSYAMSWVRQAPGKGLEWVSAISGSGGSTYYADSVKGRFTISRDNSKNTLYLQMNSLRAEDTAVYYCARSYDKYWGSSMYSGMDYWGQGTLVTVSS
VL: EIVLTQSPGTLSLSPGERATLSCRASQSVSSSYLAWYQQKPGQAPRLLIYGASSRATGIPDRFSGSGSGTDFTLTISRLEPEDFAVYYCQQYYSYYPVTFGQGTKVEIKR
notes: also called FS30-5 in mAb^2 format
- DO11.10-hCD137 T cell activation assay EC50 (nM), crosslinked [1]: 4.8 nM
- fold specificity for CD137 over TNFRSF1A, TNFRSF1B, GITR, NGFR and CD40 (hCD137-mFc-Avi [2]): ~1000 fold

B7: G1AA/FS30-6 (antibody, human IgG1, kappa, L234A L235A, V domains shown)
VH: EVQLLESGGGLVQPGGSLRLSCAASGFTVSYYSISWVRQAPGKGLEWVSDIYSYYGYTDYADSVKGRFTISRDNSKNTLYLQMNSLRAEDTAVYYCARVSYGGQAFDYWGQGTLVTVSS
VL: EIVLTQSPGTLSLSPGERATLSCRASQSVSSSYLAWYQQKPGQAPRLLIYGASSRATGIPDRFSGSGSGTDFTLTISRLEPEDFAVYYCQQYDDYPVTFGQGTKVEIKR
- Activity of non-crosslinked mAbs at 100 nM (hIL-2 pg/ml) [3]: 532 pg/mL
- EC50 (nM), hIL-2 release, primary human CD8+ T cell activation assay, crosslinked mAb [3]: 1 nM
- Emax (hIL-2 pg/ml), crosslinked mAb [3]: 1510 pg/mL

B9: FS20-22-49AA/4420 (bispecific antibody, human IgG1, kappa, L234A L235A, V domains shown)
VH: EVKLDETGGGLVQPGRPMKLSCVASGFTFSDYWMNWVRQSPEKGLEWVAQIRNKPYNYETYYSDSVKGRFTISRDDSKSSVYLQMNNLRVEDMGIYYCTGSYYGMDYWGQGTSVTVSS
VL: DVVMTQTPLSLPVSLGDQASISCRSSQSLVHSNGNTYLRWYLQKPGQSPKVLIYKVSNRFSGVPDRFSGSGSGTDFTLKISRVEAEDLGVYFCSQSTHVPWTFGGGTKLEIKR
notes: anti-OX40 Fcab FS20-22-49AA with the Fab of anti-FITC antibody 4420; IgG1 LALA; also called negative control mAb^2
- % CD137 ligand blocking activity (hCD137-mFc-Avi [4]): 2%
- % CD137 ligand blocking activity (hCD137-mFc-Avi [5]): -0.3%

Other lines, results leading:

- fold specificity for CD137 over TNFRSF1A, TNFRSF1B, GITR, NGFR and CD40 (hCD137-mFc-Avi [2]): ~1000 fold
B2: FS20-22-49AA/FS30-16 (bispecific antibody, human IgG1, kappa, L234A L235A, V domains shown)
VH: EVQLLESGGGLVQPGGSLRLSCAASGFTFSNYAMHWVRQAPGKGLEWVSTIDPTDGATNYADSVKGRFTISRDNSKNTLYLQMNSLRAEDTAVYYCARSKYYTYMQYVALDYWGQGTLVTVSS
VL: EIVLTQSPGTLSLSPGERATLSCRASQSVSSSYLAWYQQKPGQAPRLLIYGASSRATGIPDRFSGSGSGTDFTLTISRLEPEDFAVYYCQQGSRFFPITFGQGTKVEIKR
notes: also called FS30-16 in mAb^2 format

- DO11.10-hCD137 T cell activation assay EC50 (nM), crosslinked [1]: 5.5 nM
- fold specificity for CD137 over TNFRSF1A, TNFRSF1B, GITR, NGFR and CD40 (hCD137-mFc-Avi [2]): ~1000 fold
B4: FS20-22-49AA/FS30-35 (bispecific antibody, human IgG1, kappa, L234A L235A, V domains shown)
VH: EVQLLESGGGLVQPGGSLRLSCAASGFTFSAYNIHWVRQAPGKGLEWVSDISPYGGATNYADSVKGRFTISRDNSKNTLYLQMNSLRAEDTAVYYCARNLYELSAYSYGMDYWGQGTLVTVSS
VL: EIVLTQSPGTLSLSPGERATLSCRASQSVSSSYLAWYQQKPGQAPRLLIYGASSRATGIPDRFSGSGSGTDFTLTISRLEPEDFAVYYCQQYYYSSPITFGQGTKVEIKR
notes: also called FS30-35 in mAb^2 format

- DO11.10-hCD137 T cell activation assay EC50 (nM), crosslinked [1]: 9.5 nM
B5: FS20-22-49AA/FS30-35 variant, Methionine (100F) to H (bispecific antibody, V domains shown)
VH: EVQLLESGGGLVQPGGSLRLSCAASGFTFSAYNIHWVRQAPGKGLEWVSDISPYGGATNYADSVKGRFTISRDNSKNTLYLQMNSLRAEDTAVYYCARNLYELSAYSYGHDYWGQGTLVTVSS
VL: EIVLTQSPGTLSLSPGERATLSCRASQSVSSSYLAWYQQKPGQAPRLLIYGASSRATGIPDRFSGSGSGTDFTLTISRLEPEDFAVYYCQQYYYSSPITFGQGTKVEIKR

- DO11.10-hCD137 T cell activation assay EC50 (nM), crosslinked [1]: 10.2 nM
- fold specificity for CD137 over TNFRSF1A, TNFRSF1B, GITR, NGFR and CD40 (hCD137-mFc-Avi [2]): ~1000 fold
B6: FS20-22-49AA/FS30-10 (bispecific antibody, human IgG1, kappa, L234A L235A, V domains shown)
VH: EVQLLESGGGLVQPGGSLRLSCAASGFTFSSYDMSWVRQAPGKGLEWVSDIDPTGSKTDYADSVKGRFTISRDNSKNTLYLQMNSLRAEDTAVYYCARDLMVYGFDYWGQGTLVTVSS
VL: EIVLTQSPGTLSLSPGERATLSCRASQSVSSSYLAWYQQKPGQAPRLLIYGASSRATGIPDRFSGSGSGTDFTLTISRLEPEDFAVYYCQQSYSYPVTFGQGTKVEIKR
notes: also called FS30-10 in mAb^2 format

- binding result (GITR-hFc-Avi): binds
- binding result (CD40-mFc): binds
- binding result (TNFRSF1B-Fc): binds
- binding result (NGFR-Fc): binds
- binding result (TNFRSF1A-Fc): binds
B8: FS20-22-49AA/FS30-15 (bispecific antibody, human IgG1, kappa, L234A L235A, V domains shown)
VH: EVQLLESGGGLVQPGGSLRLSCAASGFTFSGSGMSWVRQAPGKGLEWVSIIYSTNGDTDYADSVKGRFTISRDNSKNTLYLQMNSLRAEDTAVYYCARDFYDIANYYAFDYWGQGTLVTVSS
VL: EIVLTQSPGTLSLSPGERATLSCRASQSVSSSYLAWYQQKPGQAPRLLIYGASSRATGIPDRFSGSGSGTDFTLTISRLEPEDFAVYYCQQAYYDPITFGQGTKVEIKR
notes: also called FS30-15 in mAb^2 format

Reference: patent US12534534 (F STAR BETA, dated 2026)
